According to the supplement of paper PMC7877785:
± gives the uncertainty stated by the source.

Experiment: self-splicing fitness, log relative to wild type (ln ratio); higher = more splicing; Tetrahymena group I intron in knt gene, E. coli kanamycin selection, DiMSum; sequences stand for … in CUCUCU…GGAGGGAAAAGUUAUCAGGCAUGCACCUGGUAGCUAGUCUUUAAACCAAUAGAUUGCAUCGGUUUAAAAGGCAAGACCGUCAAAUUGCGGGAAAGGGGUCAACAGCCGUUCAGUACCAAGUCUCAGGGGAAACUUUGAGAUGGCCUUGCAAAGGGUAUGGUAAUAAGCUGACGGACAUGGUCCUAACCACGCAGCCAAGUCCUAAGUCAACAGAUCUUCUGUUGAUAUGGAUGCAGUUCACAGACUAAAUGUCGGUCGGGGAAGAUGUAUUCUUCUCAUAAGAUAUAGUCGGACCUCUCCUUAAUGGGAGCUAGCGGAUGAAGUGAUGCAACACUGGAGCCGCUGGGAACUAAUUUGUAUGCGAAAGUAUAUUGAUUAGUUUUGGAGUACUCGUGGUCG
Method in brief: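 Pooled colonies went to amplicon sequencing on an Illumina HiSeq 2500 after six replicate transformations. The plates were LB agar with 100 μg/mL carbenicillin, 50 μM IPTG and 0.2% rhamnose, with or without 25 μg/mL kanamycin, incubated overnight at 37°C or 30°C. The E. coli BL21(DE3) library had all eight P1ex-region intron nucleotides randomised, the intron placed in the knt kanamycin-resistance gene on pET-22b(+). DiMSum fitness is the error-weighted combination of replicate fold changes, kanamycin against none, normalised to wild type.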

Row | Sequence | self-splicing fitness (ln) (30 °C) | self-splicing fitness (ln) (37 °C)
1 | UUUAAGCAAUAUUACGCGUU | -2.79 ± 0.19 | -2.51 ± 0.23
2 | AGAAAGCAAUAUUACGAAAG | -3.93 ± 0.21 | -1.94 ± 0.18
3 | UCAAAGCAAUAUUACGCUCG | -0.615 ± 0.081 | -0.0673 ± 0.12
4 | AACCAGCAAUAUUACGUGUG | -1.05 ± 0.033 | -0.463 ± 0.048
5 | CCUUAGCAAUAUUACGCAAA |  | -2.89 ± 0.34
6 | GAACAGCAAUAUUACGCUUA | -1.2 ± 0.084 | -0.826 ± 0.099
7 | GAGAAGCAAUAUUACGCCAC |  | -0.779 ± 0.37
8 | UAAUAGCAAUAUUACGAUGU | -2.78 ± 0.18 | -2.48 ± 0.19
9 | AGUAAGCAAUAUUACGGAGU | -2.22 ± 0.18 | -2.37 ± 0.39
10 | GCUAAGCAAUAUUACGAGGU | -2.03 ± 0.19 | -1.51 ± 0.15
11 | AUAAAGCAAUAUUACGCGAG | -1.08 ± 0.075 | 0.0257 ± 0.095
12 | GUGAAGCAAUAUUACGUCAU | -3.04 ± 0.2 | -2.68 ± 0.28
13 | UCGAAGCAAUAUUACGUUGA | -2.05 ± 0.099 | -2.63 ± 0.13
14 | AGCAAGCAAUAUUACGUUCC | -1.21 ± 0.12 | -0.544 ± 0.13
15 | CAUAAGCAAUAUUACGAAUU | -3.44 ± 0.27 | -1.52 ± 0.22
16 | GUCAAGCAAUAUUACGUAGC | -1.55 ± 0.12 | -1.07 ± 0.15
17 | UAAUAGCAAUAUUACGCUUU | -3.54 ± 0.44 | -1.5 ± 0.2
18 | AGUAAGCAAUAUUACGCGAA | -2.57 ± 0.12 | -1.42 ± 0.19
19 | GAACAGCAAUAUUACGGGUU | -2.91 ± 0.1 | -2.04 ± 0.11
20 | CUAGAGCAAUAUUACGCAUG | -0.244 ± 0.092 | 0.532 ± 0.1
21 | GAACAGCAAUAUUACGAAGG | -2.59 ± 0.17 | -3.26 ± 0.28
22 | CCUAAGCAAUAUUACGGGAU | -4.35 ± 0.22 | -3.29 ± 0.21
23 | UUGAAGCAAUAUUACGCUAG | -0.524 ± 0.19 | -0.328 ± 0.17
24 | UGCGAGCAAUAUUACGACAU | -3.628 ± 0.028 | -2.26 ± 0.039
25 | UGGUAGCAAUAUUACGAACC | -2.54 ± 0.29 | -1.93 ± 0.28
26 | CAAGAGCAAUAUUACGUGGG | -3.54 ± 0.21 | -2.64 ± 0.19

Row | Sequence | self-splicing fitness (ln) (30 °C) | self-splicing fitness (ln) (37 °C)
27 | GAAAAGCAAUAUUACGAACC | -0.664 ± 0.14 | -0.705 ± 0.18
28 | AGCAAGCAAUAUUACGGUUG | -3.23 ± 0.17 | -1.32 ± 0.16
29 | UAAAAGCAAUAUUACGAGUA | -1.26 ± 0.068 | -0.418 ± 0.082
30 | UCAAAGCAAUAUUACGAUCC | -3.21 ± 0.3 | -2.34 ± 0.4
31 | CUCCAGCAAUAUUACGUACC | -3.31 ± 0.29 | -1.19 ± 0.32
32 | GAUAAGCAAUAUUACGAGAU | -3.66 ± 0.21 | -2.14 ± 0.21
33 | CGUGAGCAAUAUUACGUCGG | -0.475 ± 0.11 | -0.606 ± 0.12
34 | AAUCAGCAAUAUUACGGAGA | -0.814 ± 0.085 | -1.04 ± 0.1
35 | AACUAGCAAUAUUACGUUCA | -1.3 ± 0.1 | -0.728 ± 0.12
36 | UUUCAGCAAUAUUACGAGUU | -2.96 ± 0.25 | -2.06 ± 0.19
37 | CUCGAGCAAUAUUACGACGU | -3.11 ± 0.14 | -1.59 ± 0.14
38 | GCUGAGCAAUAUUACGUUAG | -2.86 ± 0.12 | -1.74 ± 0.17
39 | UGUCAGCAAUAUUACGACCU | -0.114 ± 0.17 | 0.566 ± 0.17
40 | AUUGAGCAAUAUUACGCGGG | -3.34 ± 0.36 | -2.25 ± 0.35
41 | UGCGAGCAAUAUUACGGGUC | -4.21 ± 0.27 | -2.72 ± 0.3
42 | CUCCAGCAAUAUUACGGUCA | -2.86 ± 0.13 | -1.82 ± 0.13
43 | GAGCAGCAAUAUUACGCGAC | -3.05 ± 0.49 | -1.13 ± 0.29
44 | AAUGAGCAAUAUUACGCGGC | -2.15 ± 0.19 | -2.11 ± 0.24
45 | ACCUAGCAAUAUUACGUGCC | -1.63 ± 0.12 | -0.237 ± 0.14
46 | GUUGAGCAAUAUUACGGUGC | -2.79 ± 0.3 | -2.39 ± 0.44
47 | GCUCAGCAAUAUUACGAAGA | -0.583 ± 0.12 | -0.863 ± 0.14
48 | UGCUAGCAAUAUUACGGACU | -0.341 ± 0.1 | -0.639 ± 0.088
49 | CGACAGCAAUAUUACGUGUA | -3 ± 0.14 | -1.59 ± 0.1
50 | UGCCAGCAAUAUUACGCGUU | -1.67 ± 0.069 | -0.989 ± 0.082
51 | GGUAAGCAAUAUUACGGACA | -0.53 ± 0.13 | -0.0615 ± 0.15
52 | CACUAGCAAUAUUACGCCCG | 0.71 ± 0.13 | 0.619 ± 0.12

Row | Sequence | self-splicing fitness (ln) (30 °C) | self-splicing fitness (ln) (37 °C)
53 | GCGGAGCAAUAUUACGUUUA |  | -2.33 ± 0.37
54 | GCGGAGCAAUAUUACGUUUG | -2.86 ± 0.17 | -2.48 ± 0.27
55 | GAUCAGCAAUAUUACGCGCC | -0.0847 ± 0.14 | -0.763 ± 0.17
56 | AACUAGCAAUAUUACGGGCA | -0.872 ± 0.079 | -0.13 ± 0.088
57 | GCACAGCAAUAUUACGGACU | -0.665 ± 0.082 | -0.54 ± 0.086
58 | GCGUAGCAAUAUUACGAUUG | -2.26 ± 0.18 | -1.98 ± 0.21
59 | UGCCAGCAAUAUUACGUCCC | -2.89 ± 0.31 | -1.71 ± 0.43
60 | UCAAAGCAAUAUUACGGAGA | -3.38 ± 0.28 | -1.61 ± 0.17
61 | AGUUAGCAAUAUUACGCGAC | -2.88 ± 0.45 | -0.848 ± 0.26
62 | UGCUAGCAAUAUUACGGUCG | 0.0903 ± 0.098 | 0.362 ± 0.14
63 | CGAAAGCAAUAUUACGUCGA | -3.02 ± 0.17 | -1.51 ± 0.14
64 | UAGUAGCAAUAUUACGGCAG | -1.01 ± 0.11 | -1.57 ± 0.14
65 | CGUGAGCAAUAUUACGAGGA | -3.04 ± 0.39 | -1.65 ± 0.33
66 | ACUCAGCAAUAUUACGAUGC | -0.776 ± 0.066 | -0.0529 ± 0.075
67 | UCCAAGCAAUAUUACGGUGG | -2.08 ± 0.079 | -0.995 ± 0.096
68 | CUUCAGCAAUAUUACGGUAU | -3.47 ± 0.35 | -2 ± 0.2
69 | CCUUAGCAAUAUUACGACGG | -2.31 ± 0.17 | -2.95 ± 0.3
70 | ACACAGCAAUAUUACGUCGG | -1.65 ± 0.052 | -1.16 ± 0.071
71 | GCCAAGCAAUAUUACGUUGC | -2.91 ± 0.13 | -0.915 ± 0.15
72 | CGUAAGCAAUAUUACGUCUA | -2.78 ± 0.28 | -2.03 ± 0.18
73 | CCCCAGCAAUAUUACGGAGA | -2.32 ± 0.12 | -1.61 ± 0.15
74 | GCGCAGCAAUAUUACGGGCC | -2.96 ± 0.22 | -3.25 ± 0.27
75 | UGGGAGCAAUAUUACGACAU | -3.84 ± 0.039 | -2.9 ± 0.05
76 | AGGCAGCAAUAUUACGGGAG | -4.08 ± 0.22 | -1.53 ± 0.12
77 | CGUGAGCAAUAUUACGGUGC | -4.97 ± 0.41 | -3.39 ± 0.17
